# From the DeepSol protein solubility set
# Test: soluble on expression in E. coli; label from the status in PepcDB or PDB records
row,Sequence,soluble on expression in E. coli
1,SGCRCCKIIQSYLFDPVQVPSPGYVNEVNSCKLDEDDTDKLKGKWSSEVLVQKNDPQRQGSKKTESSSRTADPWEPCWPHQGPLPQGDAGGEHHACGVNGIGPAATPQPTGNSSPTQDDRGSWASTANTVPPTQPFLEGGGTRKQDCVLLASEGTQVMRNGDSRAPSEAESFALEVQDHVFQIPAPDYLQHWGPAGDNVDHNEKDCVFKNHTEDESLEGIQPPVGEHGLNTPFSVRRSWDSLNEDVETEVLSICFNEKGPVHAMPVVDSGNRQEDTHGSDGDGDGEIVDEDAAVAEALAALEAATAGEDLDETD,soluble
2,SGFLEQRLGHCLRQMAEKGLEALLVTHLTNSYYLTGFSGTAATVLITAKRRVLITDSRYTLLAKASVEGFDIIESRTPLKVVAELLEADQIDCLGFEDQVSFSFYQAMQAELSGITLLAQSGFVEHLR,not soluble
3,SGPLDEYAYSWANHLLANPVNCATLEITLGPAEFLLRSDAQLAIAGGDLNATLDGRPIANWSRFYAKQGQTLRFGLPRNGLRAYLAVQGGFTVSPQLGSVSTHVRQGLGGLTSQGLALQTGDDLVFSAQQIAQKPVQMTFRFRPDYNLPLRLRVIESYQYQAFSPSAMESFYRSEFIVTPNSDRMGYRLQGETISPPDQAILSEGIALGAIQVPPNGQPIILLNDRQTIGGYPKLGCVARIDLPRLAQAKPGHSVRFVAGDLAGLQAVWCQWARFFGY,not soluble
4,SGRKRFITDSYPVVKKREGPPGHNKGELAPELGEDTQSLSQEETELELLRQFDLAWQYGPCTGITRLQRWHRAEQMGLKPPVEVYQVLKTHPEDSRFQCSLWHLYPL,soluble
5,SGSNETLPDNFGKGGWKICFKIEPPATLGNGMLKISFHSDYNRKPHPDDIVEETIKDMWKRRKEVNPKMWNALKFRVDSYSTFHAQGASVVKLNLGLTDYASYQGSGSLASPLTFFQSPEEGAPERHLPLSLGNAGIVLTSDNFIILLERSEQVGEGVGRWVLPGGHPEPSHVNIPDSYLTQSYEGTRDMCLTIERELYNSILMEITEEVGLRSSELFTLQLLGMVQRERDKRPVLVGHTRTTLSKSEMEARFCCQRIHTEACRILFCDIRQVETFFQENEQIMPEHRGALQLYFESSVCQQDWKLCKE,soluble
6,SGWVWNQFFVLEEYTGTDPLYVGKLHSDMDRGDGSIKYILSGEGAGIVFTIDDTTGDIHAIQRLDREERSQYTLRAQALDRRTGRPMEPESEFIIKIQD,soluble
7,SHLVVESFPSYRDVTLFEGKRVSFYKRAQILVADTWSVLEGKGDGCFKDISSITMFADYRLPQVLAHLGALKYSDDLLKKLLKGEMLSYGDRQEVEIRGCSLWCVELIRDCLLELIEQKGEKPNGEINSILLDYYLWDYAHDHREDMKGIPFHRIRCIYY,soluble
8,SHMAGHQIVHVRGDSETDLEALFNAVMNPKTANVPQTVPMRLRKLPDSFFKPPEPKSHSRQASTDAGTAGALTPQHVRAHSSPASLQLGAVSPGTLTPTGVVSGPAATPTAQHLRQSSFEIPDDV,soluble
9,SIDEEMQVEAAKALREALQKYDRGRGKWHGTGKSIEPAKLGDEEVWRAELAATEVARDVDLGGRWHPAVVLGVGEQDLSVGVEDGPAKGRVPRSDIKWMKGSFKDNFKLGDVVLVRKADEDWSLRQVPEVQGGFMAMDVNTGRVLAMQGGFSYQDSVFNRATQALRQPGSSFKPFVYAAALDSGYSPATIVVDAPIEVNTPQGLWRPKNASNKFYGPTPLRTGIERSRNLMTIRLAQEVSMPVVAGYAERFGVYDHMGPFLANALGSEETTLYKMVAAYAMFANGGERVEPTLVDRIQDRFGKTIYRHDQRDCVDCLSDRLEPDQAPRIVTNRERVMNAITAYQLTSMMRGVVERGTASGTVKLPVPTAGKTGTTNDAKDVWFIGFTSNIVAGCYIGYDRPQPLGRGASGGGMCGPVFQSFMTEAVKKFGGGPF,not soluble
10,SKDPAFTALLTTQLQVQREIVNKHNELRKAVSPPASNMLKMEWSREVTTNAQRWANKCTLQHSDPEDRKTSTRCGENLYMSSDPTSWSSAIQSWYDEILDFVYGVGPKSPNAVVGHYTQLVWYSTYQVGCGIAYCPNQDSLKYYYVCQYCPAGNNMNRKNTPYQQGTPCAGCPDDCDKGLCTNSCQYQDLLSNCDSLKNTAGCEHELLKEKCKATCLCENKIY,soluble
11,SKDQHLRGFFSDSTSFNILMDMLFIKGKYKSALQVLIEMKNQDVKFTKDTYVLAFAICYKLNSPESFKICTTLREEALLKGEILSRRASCFAVALALNQNEMAKAVSIFSQIMNPESIACINLNIIIHIQSNMLENLIKTLKNAAEGNLSKFVKRHVFSEEVLAKVREKVKDVPALVAKFDEIYGTLHITGQVTTDSLDAVLCHTPRDRKSHTLLLNKRMVSRRTFQPLSQSLLAE,soluble
12,SKRVEVLLTQLPAYNRLKTPYEAELIETAKKMTAPGKGLLAADESTGSCSKRFAGIGLSNTAEHRRQYRALMLECEGFEQYISGVILHDETVYQKAKTGETFPQYLRRRGVVPGIKTDCGLEPLVEGAKGEQMTAGLDGYIKRAKKYYAMGCRFCKWRNVYKIQNGTVSEAVVRFNAETLARYAILSQLCGLVPIVEPEVMIDGTHDIETCQRVSQHVWSEVVSALHRHGVVWEGCLLKPNMVVPGAESGLKGHAEQVAEYTVKTLARVIPPALPGVTFLSGGLSEVMASEYLNAMNNCPLPRPWKLTFSYARALQSSAIKRWGGKESGVEAGRRAFMHRAKMNSLAQLGKYNRADDDKDSQSLYVAGNT,soluble
13,SLARKRRSTQRFSTTRKLKKERKIGTGKKEAEPLLPDLAEINAPDLMPTLVLNFDNVLASIAYDPVKGYIVRKRPGVDAFLSTLANFYELVLWSDHPFPFIEDLLRARLEWPISFTLYQENMDRRGSSRYRKIVQKGPFFKATRGVACSSGLSETAETLEEIFDNLERLGRRMDRVLYIDIDGSVLPSTQMRNFIKVTPFHGEAQEMLEDHALPELTDLLIGAAVSAGDVREMLLRYGGGADGNVGKR,soluble
14,SLCQEKHTHTHSQKHLKAVCNRLSRTIGHLSAIKRMVENDKDCSEILIQLAAVKAEVNNTAKVVLKEHLAHCMVHAIEENDIQSIEELNKAIDMFMK,soluble
15,SLDEAEMKAVNIHDGIDGTLMILHHRLKAAIRRPKIEIVKDYAKLPLIECYPGKLNQVFMNILANAIDALEEGMGNEEIPPPTGQITIRTEVLDNQWVVIRIADNGPGMKEEVIRRIYDPFFTTKDVGKGTGLGMAISYQIVVDKHGGMLKCRSQPGEGTEFWIQIPVNCALADAAEEG,soluble
16,SLIKNGELKPGDKLDSVQALAESFQVSRSAVREALSALKAMGLVEMKQGEGTYLKEFELNQISQPLSAALLMKKEDVKQLLEVRKLLEIGVASLAAEKRTEADLERIQDALKEMGSIEADGELGEKADFAFHLALADASQNELLKHLMNHVSSLLLETMRETRKIWLFSKKTSVQRLYEEHERIYNAVAAGNGAQAEAAMLAHLTNVEDVLSGYFEENVQ,soluble
17,SLIKQKLKISQNLNSIQIQTIKILSLNQKELTKLILEESENNECLEINSNKIFFETLKTYRFKKVFYKEDDMIKNQHDIALEKTQTNTSLKEHLLLQLRIQRINEDEIKIGEILINNLNSKGFHIINPYDLFKKEEKEKVKKIIELIQKFDPIGICVPNIIESLILQAKHHKLETNIIKILEKAELLEKTQKKLKEELKIRSKEFNTALEIIRQKLNPNPTLEFKDPNDTNFYVDPDILIINHNNKFKIKIKEVNIFKKELKRTSENPQKQKKAKWLIESLRYRDEILAKIGIAIYTLQKEFLRRGFKSLRPMNLSILSEKISVSKSTISRAIKNKYLKCEWGTILIKELFSSVGGAKTNEFSKLSIKITVKKLLEANKKMSDKEISVILKSKGISISRRTVNKYRNELKSEKGRTYYGT,not soluble
18,SLITVRIGGNEYPLDEVLEDPGRYARHLERAKTIQGFAECGCAEGRPRPKLVIRRHRDIFLLARWPEQAFRHAEGCPFHRKTQTTPGAADSLDAFRMRDGRHDIRLDASLSVSTHTPAKTVQRTPKGQFTKPQRRSAGLLALLEFAWEQAGLNVWPGTGARSWNGCWSQLTAELDDCRINGKDADGLLHVMQRWDPARKSEILAEFEAWQARLSPTAAGNPRGILIGEIESHAATQYGGKVVLRQSTQRFFMSSGLYERLQASFGTALAGIGRAEQRCVAVLLVEKSRSNYLTVVDIGAMLANRQFLPCDSSHEVAMADHLVALRRAFRKPLRHIGRAEVHPDFVLTDVQPETVIEVLGMAGNPAYDARTASKRQHYQTAGVPFLEWDAVATSISSVRVPPAGTRAADAR,soluble
19,SLKEVLDEKFPSNNKLEVGLGRDISGDPITVPLNEMPHLLVAGSTGSGKSVCINGIITSILLNAKPHEVKLMLIDPKMVELNVYNGIPHLLIPVVTNPHKAAQALEKIVAEMERRYDLFQHSSTRNIKGYNELIRKQNQELDEKQPELPYIVVIVDELADLMMVAGKEVENAIQRITQMARAAGIHLIVATQRPSV,not soluble
20,SLKPSRPVETAYLQGQPGTPFPVIRGIGWSEDQGRRPDMEDGMVAISNLAGVANAWLLGIYDGHGGRQMVEMLLQKIHGNVLQHLRSRAIERWQRYRQRAMSRLQDIRRRLDELHFQQQLACRDVRVLMPPTQRLVELLRLGRICEWVLQCEEPSQEGRTETEKSSASKAPTPPSFLTICTEEDVHRALDEAFVQTDVEILQRLTHPSDHKAGCERDARRVESLGGWVFGERVNGMLAIGRAFGDWSLKLPPGKANPPYSPTSGAFDRLLNIFGTSPSHAAEQAAAERKEYVVSNAPDVRSVSLTPERPAQVPGGIRRNSPSSRASESQTAMSGQETGAGRVPGLLVLGCDGLFDVCSDQVVAHLALEFLRQLVAVHPDMSPCEAAKATARMLIEEAIGVRGSTDNVSVMVVLFHSFGFSGRDGVTPSPPTWYAAAAAKFAWLAEGVSRNVFGLPTASPIALPREPEDKTVD,not soluble
21,SLLPNILLTGTPGVGKTTLGKELASKSGLKYINVGDLAREEQLYDGYDEEYDCPILDEDRVVDELDNQMREGGVIVDYHGCDFFPERWFHIVFVLRTDTNVLYERLETRGYNEKKLTDNIQCEIFQVLYEEATASYKEEIVHQLPSNKPEELENNVDQILKWIEQWIKDHNS,soluble
22,SLNAEEKKGLQRAIEEITEIAKGFGLDFYPMRYEICPAEIIYTFGAYGMPTRFSHWSFGKQFHKMKLHYDLGLSKIYELVINSDPCYAFLLDSNSLIQNKLIVAHVLAHCDFFKNNCRFQNTKRDMVESMAATAERIKHYEQVHGIKEVESFLDAILSIQEHIDPSLVRPKLQWSVDDEEEEIEEAATPYDDLWSLDEKKPKKQVKKSKKPFPPRPEKDILLFIEEHSRELEPWQRDILTMMREEMLYFWPQLETKIMNEGWASYWHQRIIRELDLTSDEAIEFAKLNAGVVQPSKTGINPYYLGLKIFEDIEKRYNNPTEEMKKMGVQPDSGREKMFEVREIESDISFIRNYLTKELVMREDLYLFAAAGRDYKIIDKQWKSVRDQLVSMRVNGGFPYLTVNDGDYMKNNELYIKHWYEGIELDLKYLEKVLPYLFQLWGRSVHIESVLEDKEVMFSYDGKGVHRRYL,soluble
23,SLPERGKTETADGEVFLQWLRQSVTDGMLSVNESDSVLHILARFVFVASPDVFYKYTSSAGDAVQDKKQLQKSFEALSVHHSRNGKGLYHYHKYDAPDKSGGFIKVSGYMIETNLIFRKGSCPSDSIWLSPRS,soluble
24,SLQKFKWSNIYCKEADCVRILLVADPQILGKTFDTHFYAGLANYDSDRYLAWYYEQAVEHVQPDVIIFLGDLMDEGTDSTEMHFEEYYTRFGAIFPTHPTARSIYIPGDNDIGGEGRQPLNPIAKRRFRQYFSERPAWVINDNLTIYNINRITLEMTLNDPRMVDSTGSDVSDRYLRIFVSHMPVLDVPSSFTYTAIHNLKPNVIFSAHLHVSQFARIHRSRLKTVQYKPLSQDKRTAYKVHSFDLSYHQDTQELLEIIVPTCSYRMSVPDIGYGYAAIDGTTLKYTVLWTTRRFYQLISYV,not soluble
